Data as given in PMC7705443 (Cell Research, 2020).

How the values were obtained:
[1] = target: SARS-CoV-2 RBD (residues 319-541), C-terminal his-tag (SARS-CoV-2, Wuhan-Hu-1 (MN908947.3), UniProt P0DTC2); assay: SPR; conditions: both partners purified
[2] = target: SARS-CoV RBD (residues 306-527), C-terminal his-tag (SARS-CoV (GenBank NC_004718.3, Tor2), UniProt P59594); assay: SPR; conditions: both partners purified

B1: P17 antibody (full-length IgG1) (antibody, V domains shown)
VH: QQLVESGGGVVQPGRSLRLSCAASGFTFSSYAMHWVRQAPGKGLEWVAVISYDGSNKYYADSVKGRFTISRDNSKNTLYLQMNSLRAEDTAVYYCARHATLMNNKDIWGQGTLVTVSS
VL: not shown
notes: also called NAb P17
B1 was tested, and the Kd [1] was 0.096 nM and the binding result [2] was “no binding”.
